Measured values taken from publication PMC6322740, “Structural characterization of a pathogenicity-related superoxide dismutase codified by a probably essential gene in Xanthomonas citri subsp. citri” (PLoS ONE, 2019).

Target: the molecule itself
Assay: SEC; Superdex 200 10/300, 50 mM Tris-HCl pH 8.0, 150 mM NaCl; tag removed with thrombin; oligomeric state estimated from the molecular mass

B1: XcSOD, manganese containing superoxide dismutase from Xanthomonas citri subsp. citri (enzyme)
chain: MAYTLPQLPYAYDALEPNIDAQTMEIHHTKHHQTYINNVNAALEGTEYADLPIEELVSKLKSLPENLQGPVRNNGGGHANHSLFWTVLSPNGGGEPKGEVAKAIDKDLGGFEKFKEAFTKAAVSRFGSGWAWLSVTPDKKLVVESTANQDSPLFEGNTPILGLDVWEHAYYLKYQNRRPEYIGAFYNAVNWEEVERRYHAAIA
notes: Cloned in pET28a; His-tag removed with thrombin before size exclusion chromatography and crystallization; also called MnSOD; product of the sodM gene (XAC2386); source: E. coli BL21 (DE3), purified (Ni-NTA, thrombin, size exclusion chromatography); not shown: His-tag, N-terminal, cleaved
  stoichiometry N: 2
